The results in this text go back to paper PMC12429063, “The BUB1 and BUBR1 paralogs scaffold the kinetochore fibrous corona” (Science Advances, 2025).

The target in assay [1] is T1, mCherry-tagged ROD-Zwilch-ZW10 (RZZ) complex, wild type (UniProt P50748 1-2209; Q9H900 1-591; O43264 1-779).
T1 construct: ROD, subunit of the RZZ complex; Zwilch, subunit of the RZZ complex; ZW10, subunit of the RZZ complex; also called mCherry-RZZ; mCherry-RZZ^WT; source: expressed and purified using the biGBac system, as previously described; copies: 2 + 2 + 2
The experiment in a line: pull-down; GST-BUB1 baits on GSH beads, no phosphorylation step; 50 mM Hepes pH 8.0, 100 mM NaCl, 1 mM TCEP; beads 2 hours at 4°C; SDS-PAGE, Coomassie or in-gel fluorescence. Particulars: both partners purified.

For assay [2], the target named is T2, RZZS rings: mCherry-RZZ polymerized with farnesylated GFP-Spindly in the presence of MPS1 kinase domain (UniProt P50748 1-2209; Q9H900 1-591; O43264 1-779; Q96EA4 1-605, incubated with MPS1 kinase domain and ATP (the paper names T13 and S15 of ROD as the MPS1 sites) | farnesylated).
T2 construct: ROD, subunit of the RZZ complex; Zwilch, subunit of the RZZ complex; ZW10, subunit of the RZZ complex; Spindly, dynein-dynactin adaptor; A polymer; also called polymerized RZZS; RZZS filaments; copies: + + +
The experiment in a line: co-sedimentation; pelleting assay: polymerized RZZS incubated with preys 2 hours at 20°C, 40% glycerol cushion, 100,000g 45 min at 20°C; 50 mM Hepes pH 8, 100 mM NaCl, 2 mM MgCl2, 1 mM TCEP. To be noted: both partners purified.

T2 sequence (P50748 whole entry, chain 1 of 4, the tested form may be a part): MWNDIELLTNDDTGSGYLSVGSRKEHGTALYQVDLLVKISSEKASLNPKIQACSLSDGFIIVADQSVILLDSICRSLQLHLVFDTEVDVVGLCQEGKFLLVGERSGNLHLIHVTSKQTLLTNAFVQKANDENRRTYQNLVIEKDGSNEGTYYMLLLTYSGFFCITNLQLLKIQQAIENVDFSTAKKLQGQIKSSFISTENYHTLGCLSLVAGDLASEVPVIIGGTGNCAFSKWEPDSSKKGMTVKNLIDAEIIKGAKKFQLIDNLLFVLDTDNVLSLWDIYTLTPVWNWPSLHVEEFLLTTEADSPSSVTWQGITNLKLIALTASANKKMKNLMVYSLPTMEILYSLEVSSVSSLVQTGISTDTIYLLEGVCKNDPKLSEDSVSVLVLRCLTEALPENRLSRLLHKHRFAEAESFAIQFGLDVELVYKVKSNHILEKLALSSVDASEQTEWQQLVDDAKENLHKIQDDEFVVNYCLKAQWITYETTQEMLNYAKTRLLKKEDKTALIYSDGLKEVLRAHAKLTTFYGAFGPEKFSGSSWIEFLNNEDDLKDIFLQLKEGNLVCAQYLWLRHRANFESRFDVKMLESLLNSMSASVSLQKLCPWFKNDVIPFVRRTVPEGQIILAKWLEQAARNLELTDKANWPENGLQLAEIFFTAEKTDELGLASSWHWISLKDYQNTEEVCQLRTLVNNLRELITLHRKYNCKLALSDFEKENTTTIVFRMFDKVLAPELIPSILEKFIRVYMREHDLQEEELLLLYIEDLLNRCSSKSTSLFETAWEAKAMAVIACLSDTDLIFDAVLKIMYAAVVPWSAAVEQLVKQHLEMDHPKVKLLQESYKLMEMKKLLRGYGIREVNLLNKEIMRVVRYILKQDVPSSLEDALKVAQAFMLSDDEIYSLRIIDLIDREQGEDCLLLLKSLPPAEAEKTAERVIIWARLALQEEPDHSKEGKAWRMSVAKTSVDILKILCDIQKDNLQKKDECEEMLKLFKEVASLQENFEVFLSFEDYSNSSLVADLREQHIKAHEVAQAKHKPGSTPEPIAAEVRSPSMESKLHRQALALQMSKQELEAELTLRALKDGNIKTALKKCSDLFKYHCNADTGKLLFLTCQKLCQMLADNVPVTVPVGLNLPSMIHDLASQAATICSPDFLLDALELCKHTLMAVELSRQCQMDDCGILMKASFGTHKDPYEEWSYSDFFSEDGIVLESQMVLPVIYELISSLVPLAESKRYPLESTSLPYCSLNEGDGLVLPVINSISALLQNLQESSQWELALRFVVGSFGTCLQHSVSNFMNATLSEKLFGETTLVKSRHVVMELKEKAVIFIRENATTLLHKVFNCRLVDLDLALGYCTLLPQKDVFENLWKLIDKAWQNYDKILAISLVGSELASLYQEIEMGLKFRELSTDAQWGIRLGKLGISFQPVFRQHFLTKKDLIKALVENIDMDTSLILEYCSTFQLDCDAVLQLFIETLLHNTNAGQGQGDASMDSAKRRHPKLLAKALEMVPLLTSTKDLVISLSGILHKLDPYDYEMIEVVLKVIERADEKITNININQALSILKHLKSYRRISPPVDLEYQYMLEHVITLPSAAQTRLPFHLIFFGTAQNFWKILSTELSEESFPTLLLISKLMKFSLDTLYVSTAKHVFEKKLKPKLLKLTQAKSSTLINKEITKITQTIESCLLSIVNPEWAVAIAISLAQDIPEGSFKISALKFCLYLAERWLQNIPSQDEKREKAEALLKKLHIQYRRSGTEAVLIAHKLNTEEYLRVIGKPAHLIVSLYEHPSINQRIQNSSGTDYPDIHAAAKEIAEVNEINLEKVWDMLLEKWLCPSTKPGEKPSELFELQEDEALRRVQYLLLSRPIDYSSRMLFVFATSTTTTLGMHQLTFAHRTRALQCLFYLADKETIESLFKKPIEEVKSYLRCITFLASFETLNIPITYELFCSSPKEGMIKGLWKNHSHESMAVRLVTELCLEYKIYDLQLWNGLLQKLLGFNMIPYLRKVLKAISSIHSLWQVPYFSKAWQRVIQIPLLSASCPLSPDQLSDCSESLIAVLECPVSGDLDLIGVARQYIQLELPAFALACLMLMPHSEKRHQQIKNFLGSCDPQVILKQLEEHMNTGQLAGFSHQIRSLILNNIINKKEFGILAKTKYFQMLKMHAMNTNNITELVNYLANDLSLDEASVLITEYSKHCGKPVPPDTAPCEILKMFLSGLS
T2 sequence (Q9H900 whole entry, chain 2 of 4, the tested form may be a part): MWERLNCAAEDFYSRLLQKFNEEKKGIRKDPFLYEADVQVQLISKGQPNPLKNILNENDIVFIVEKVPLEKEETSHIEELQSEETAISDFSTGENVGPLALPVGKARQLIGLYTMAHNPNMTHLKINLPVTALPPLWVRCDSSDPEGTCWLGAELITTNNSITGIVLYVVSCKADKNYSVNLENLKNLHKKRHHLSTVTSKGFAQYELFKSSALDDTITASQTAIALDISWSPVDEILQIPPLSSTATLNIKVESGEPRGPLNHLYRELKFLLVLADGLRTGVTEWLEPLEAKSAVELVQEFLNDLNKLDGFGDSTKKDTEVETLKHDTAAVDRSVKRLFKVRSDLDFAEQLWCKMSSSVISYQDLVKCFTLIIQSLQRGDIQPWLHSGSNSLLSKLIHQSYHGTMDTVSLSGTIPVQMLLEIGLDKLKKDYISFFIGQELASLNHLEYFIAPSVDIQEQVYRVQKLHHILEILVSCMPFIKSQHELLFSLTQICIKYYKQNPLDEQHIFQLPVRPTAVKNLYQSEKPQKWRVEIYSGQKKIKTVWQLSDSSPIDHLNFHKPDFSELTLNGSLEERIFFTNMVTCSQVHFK
T2 sequence (O43264 whole entry, chain 3 of 4, the tested form may be a part): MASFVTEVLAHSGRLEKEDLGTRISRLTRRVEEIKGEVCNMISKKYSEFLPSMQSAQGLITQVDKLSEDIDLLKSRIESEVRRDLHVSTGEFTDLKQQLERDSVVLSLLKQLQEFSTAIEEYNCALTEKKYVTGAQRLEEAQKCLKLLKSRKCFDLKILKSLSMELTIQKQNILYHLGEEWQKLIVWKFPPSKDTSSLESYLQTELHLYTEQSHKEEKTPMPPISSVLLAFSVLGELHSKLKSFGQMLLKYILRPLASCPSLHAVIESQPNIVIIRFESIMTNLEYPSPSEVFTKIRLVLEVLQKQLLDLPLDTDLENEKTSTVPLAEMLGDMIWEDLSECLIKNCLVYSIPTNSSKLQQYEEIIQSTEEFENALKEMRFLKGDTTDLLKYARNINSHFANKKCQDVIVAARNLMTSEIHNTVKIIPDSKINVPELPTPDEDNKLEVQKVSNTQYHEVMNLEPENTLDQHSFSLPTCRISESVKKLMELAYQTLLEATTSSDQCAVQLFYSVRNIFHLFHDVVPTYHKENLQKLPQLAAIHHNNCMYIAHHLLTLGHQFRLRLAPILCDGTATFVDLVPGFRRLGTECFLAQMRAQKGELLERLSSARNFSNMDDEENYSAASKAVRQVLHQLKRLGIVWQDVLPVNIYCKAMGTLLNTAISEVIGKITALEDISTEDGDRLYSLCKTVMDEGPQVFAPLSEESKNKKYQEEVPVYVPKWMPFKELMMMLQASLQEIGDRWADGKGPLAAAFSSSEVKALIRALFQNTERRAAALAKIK
T2 sequence (Q96EA4 whole entry, chain 4 of 4, the tested form may be a part): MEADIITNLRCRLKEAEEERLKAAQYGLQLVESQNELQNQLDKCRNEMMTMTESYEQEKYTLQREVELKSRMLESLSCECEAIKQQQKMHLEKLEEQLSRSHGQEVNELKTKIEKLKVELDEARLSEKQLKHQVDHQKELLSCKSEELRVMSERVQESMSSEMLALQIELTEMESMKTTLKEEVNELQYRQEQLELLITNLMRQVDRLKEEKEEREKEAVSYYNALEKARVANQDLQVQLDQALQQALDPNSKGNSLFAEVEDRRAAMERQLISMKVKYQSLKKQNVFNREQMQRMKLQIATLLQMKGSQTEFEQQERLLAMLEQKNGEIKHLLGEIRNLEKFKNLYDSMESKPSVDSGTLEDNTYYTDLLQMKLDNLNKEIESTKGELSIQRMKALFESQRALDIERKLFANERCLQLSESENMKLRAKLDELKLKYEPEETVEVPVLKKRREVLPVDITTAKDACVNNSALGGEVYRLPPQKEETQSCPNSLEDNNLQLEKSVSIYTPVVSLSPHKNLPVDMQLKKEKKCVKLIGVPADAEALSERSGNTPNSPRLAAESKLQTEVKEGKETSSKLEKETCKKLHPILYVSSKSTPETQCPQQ
T1 sequence (P50748 whole entry, chain 1 of 3): as the sequence (P50748 whole entry, chain 1 of 4, the tested form may be a part) above
T1 sequence (Q9H900 whole entry, chain 2 of 3): as the sequence (Q9H900 whole entry, chain 2 of 4, the tested form may be a part) above
T1 sequence (O43264 whole entry, chain 3 of 3): as the sequence (O43264 whole entry, chain 3 of 4, the tested form may be a part) above

B1: GST-BUB1^467-521 (domain or fragment, human, UniProt O43683 467-521, looked up)
chain: ALGFIMNMFQAPTLPDISDDKDEWQSLDQNEDAFEAQFQKNVRSSGAWGVNKIIS
notes: source: E. coli BL21 CodonPlus, purified (GSTrap, SEC); not shown: GST, N-terminal, kept
For the molecule B1, the binding result in assay [1] and in assay [2] was “binds” throughout.
